Data published in US20190112361A1 (Genentech, published 2019).

Target: T1, full-length human Tau (flTau) (human, UniProt P10636-8 1-441)
T1 construct: also called human Tau, longest isoform (441 aa)
Test: direct ELISA, flTau coated at 1 µg/mL, hybridoma supernatant dilutions
Excerpt: Serum-free supernatants were harvested from stable hybridomas. The supernatants containing antibodies of interest were then screened by ELISA assays to characterize antibody properties and select antibodies for further development. The ELISA assays were used to determine the following: binding to full-length human Tau (flTau; SignalChem, Canada), binding to hyperphosphorylated flTau (Genentech, USA), binding to oligomeric versus monomeric preparations of flTau, and binding to certain antibody Tau epitope(s).
Coating was done overnight in phosphate-buffered saline (PBS) at 4° C. Plates were washed thoroughly with 0.05% Tween-20/PBS and then blocked with 1% bovine serum albumin (BSA) in 0.05% Tween-20/PBS for 1 hr at 37° C. The antibody contained in the hybridoma supernatant was then added at the indicated dilutions, and incubated for 2 hrs at 37° C. after which the plates were washed as described previously.
For the direct ELISAs, an AP-conjugated anti-mouse IgG secondary antibody (Jackson ImmunoResearch Laboratories, United Kingdom) was added at 1/6000 dilution in 0.05% Tween-20/PBS for 2 hr at 37° C. After the final wash, plates were incubated with p-nitrophenyl phosphate disodium hexahydrate (pNPP; Sigma-Aldrich, Switzerland) phosphatase substrate solution, and read at 405 nm using an ELISA plate reader (Tecan, Switzerland). Results are expressed as optical densities (O.D.).

T1 sequence (P10636 other isoform, or with tags, fused parts or gaps limits assumed): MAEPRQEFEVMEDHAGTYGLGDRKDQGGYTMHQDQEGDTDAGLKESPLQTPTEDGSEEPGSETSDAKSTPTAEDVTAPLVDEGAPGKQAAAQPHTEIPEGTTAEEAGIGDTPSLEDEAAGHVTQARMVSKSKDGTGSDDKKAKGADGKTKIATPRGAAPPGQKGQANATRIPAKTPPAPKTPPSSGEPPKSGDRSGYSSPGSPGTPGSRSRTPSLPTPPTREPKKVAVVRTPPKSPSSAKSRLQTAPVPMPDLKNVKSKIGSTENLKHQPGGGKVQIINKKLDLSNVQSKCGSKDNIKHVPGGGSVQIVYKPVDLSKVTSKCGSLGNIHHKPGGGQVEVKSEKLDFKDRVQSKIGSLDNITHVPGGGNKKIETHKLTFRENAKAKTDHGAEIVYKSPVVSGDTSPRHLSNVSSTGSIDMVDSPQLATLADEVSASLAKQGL

B1: 12A10-E8 (antibody, V domains shown)
VH: QIQLVQSGPELKKPGETVKISCKASGYTFTNYGMNWVKQAPGKGLKWMGWINMYTGEPTYGDDFKGRFVFSLETSVSTVYLQINNLKKEDTATFFCARGGRPDYWGQGTSVTVSS
VL: DVLMTQTPLSLPVSLGDQASISCRSSQSIVHSNGNTYLEWYLQKPGQSPKLLIYKVFNRFSGVPDRFSGSGSGTDFTLKINRVEAEDLGVYYCLQGSHVPYTFGGGTKLEIK
notes: hybridoma supernatant
- binding result: binds
